Measured values taken from PMC10995199, “Architecture and regulation of filamentous human cystathionine beta-synthase” (Nature Communications, 2024).

Biological target: the molecule itself
Test: SEC + native gel or EMSA; control constructs in analytical Superose 6 gel filtration and clear-native and blue-native PAGE (Supplementary Fig. 2); self-association

B1: human cystathionine beta-synthase catalytic domain alone (CBS^CD, residues 1–413) (domain or fragment, UniProt P35520 1-413, looked up)
chain: MPSETPQAEVGPTGCPHRSGPHSAKGSLEKGSPEDKEAKEPLWIRPDAPSRCTWQLGRPASESPHHHTAPAKSPKILPDILKKIGDTPMVRINKIGKKFGLKCELLAKCEFFNAGGSVKDRISLRMIEDAERDGTLKPGDTIIEPTSGNTGIGLALAAAVRGYRCIIVMPEKMSSEKVDVLRALGAEIVRTPTNARFDSPESHVGVAWRLKNEIPNSHILDQYRNASNPLAHYDTTADEILQQCDGKLDMLVASVGTGGTITGIARKLKEKCPGCRIIGVDPEGSILAEPEELNQTEQTTYEVEGIGYDFIPTVLDRTVVDKWFKSNDEEAFTFARMLIAQEGLLCGGSAGSTVAVAVKAAQELQEGQRCVVILPDSVRNYMTKFLSDRWMLQKGFLKEEDLTEKKPWWWHLR
notes: source: E. coli Rosetta (DE3), purified
For B1, the “stoichiometry N” value was 2.
